Each block holds one molecule with its values, some of them ahead of it.
Key:
[1] = system: T1, MrUGT78W1; assay: UDP-Glo glycosyltransferase assay, luminescence; type: biochemical, Morella rubra; settings: 650 μM UDP-Gal, Tris-HCl 100 mM pH 8.5, 30°C
T1 construct: gene UGT78W1; full length, 469 residues (ORF 1410 bp), pET-32a(+) in E. coli BL21(DE3)pLysS, HisTALON purified, tag cleavage not mentioned; gene on chromosome 7
Source text: UDP-Glo glycosyltransferase assay, luminescence on MrUGT78W1

[2] = substrate: O=c1c(O)c(-c2cc(O)c(O)c(O)c2)oc2cc(O)cc(O)c12; assay: purified protein; settings: 650 μM UDP-Rha, Tris-HCl 100 mM pH 7.5, 35°C
[3] = substrate: O=c1c(O)c(-c2ccc(O)c(O)c2)oc2cc(O)cc(O)c12; assay: UDP-Glo glycosyltransferase assay, luminescence; type: biochemical, Morella rubra; settings: 650 μM UDP-Rha, Tris-HCl 100 mM pH 7.5, 35°C
Source text: (§1) UDP-Glo glycosyltransferase assay, luminescence on MrUGT78R2

[4] = substrate: O=c1c(O)c(-c2ccc(O)cc2)oc2cc(O)cc(O)c12; assay: UDP-Glo glycosyltransferase assay, luminescence; type: biochemical, Morella rubra; settings: 650 μM UDP-Rha, Tris-HCl 100 mM pH 7.5, 35°C
Source text: as §1

Km [1]: 50 ± 4.63 µM
Molecule: O=c1c(O)c(-c2ccc(O)cc2)oc2cc(O)cc(O)c12 [K, Kaempferol]

Molecule: O=c1c(O)c(-c2ccc(O)c(O)c2)oc2cc(O)cc(O)c12 [Q, Quercetin]
Km [1]: 93.5 ± 2.69 µM

Km [1]: 13.7 ± 0.92 µM
Molecule: O=c1c(O)c(-c2cc(O)c(O)c(O)c2)oc2cc(O)cc(O)c12 [M, Myricetin]

B1: MrUGT78R2 (Morella rubra) (protein)
chain: MTQSSQDQHVAVLAFPLGCHPWPLLNLACKLACAAPNVRFSFFNTPKSNSKLFSTSQAEPPQNLKAYDVADGVPEGHVFTPGNPVEELELFLNAAPESFRNGMDMAVAETGREISCLLTDAFLVFASEMALDMHAKWVPFWVPAPHSLSAHMYSDLIYETYTNVCGGGEDGINTSDGDNYGTGTLGGIKPIDKTLDVIPGLSIMRFRDLPQQLLLGDFNSSLFSSALYRIGAVLPQASAVIMNSFQELNPATLTDDLKSKFQNLLYVGFLTLTLPPPPPPPSHSDATGCLPWLDDQKPTSVAYISFGTVSAVPPHEFVALAEALEASHVPFLWSLRDNFKEILPTGFLQRTRTQGKIVPWAPQAHVLAHKAVGVYVTHCGYNSVFESVVGEVPMICRPILGDNMFNGRMVEDVWGIGVGVEGGVFTKNGMLKSLEVVLGEEHGKRMREKIRDIKDLVVKAAGPTGIASKDFNTLVEVISK
notes: full length, 480 residues (ORF 1443 bp), pET-32a(+) in E. coli BL21(DE3)pLysS, HisTALON purified, tag cleavage not mentioned
Km [2]: 66.78 ± 3.56 µM
kcat/Km [2]: 34700 M⁻¹ s⁻¹
Km [3]: 61.81 ± 8.74 µM
kcat/Km [3]: 45900 ± 4500 M⁻¹ s⁻¹
Km [4]: 58.11 ± 5.52 µM
kcat/Km [4]: 37800 ± 2500 M⁻¹ s⁻¹

Reference: publication PMC9437722, “Identification of UDP-rhamnosyltransferases and UDP-galactosyltransferase involved in flavonol glycosylation in Morella rubra” (Horticulture Research, 2022)
